For 4 substances, Kd results are on record in paper PMC3969726.

In assay [1] the target is Mu50 ArdA (ArdA protein from Staphylococcus aureus Mu50, Orf SAV0405) (Staphylococcus aureus Mu50). The assay is described as follows: SEC; Biosep-SEC-S3000 column; 20 mM Tris-HCl, 20 mM MES, 200 mM NaCl, 10 mM MgCl2, 0.1 mM EDTA, 7 mM 2-mercaptoethanol, pH 6.5; 25 °C; apparent molecular mass against injected monomer concentration, fitted to a monomer-dimer equilibrium; apparent constants; dimer to monomers.

Assay [2] concerns the target Bfr ArdA (ArdA protein from Bacteroides fragilis NCTC 9343, Orf BF1222) (Bacteroides fragilis NCTC 9343). Described as above.
The target in assay [3] is Ocr (Escherichia phage T7) (UniProt P03775). As to conditions: cited from earlier work.
Assay [4] addresses Orf18 ArdA protein expressed by the conjugative transposon Tn916 (conjugative transposon Tn916). The assay is described as follows: SEC; Biosep-SEC-S3000 column; 20 mM Tris-HCl, 20 mM MES, 200 mM NaCl, 10 mM MgCl2, 0.1 mM EDTA, 7 mM 2-mercaptoethanol, pH 6.5; 25 °C; apparent molecular mass against injected monomer concentration, fitted to a monomer-dimer equilibrium; apparent constants; dimer to monomers. In general terms: SEC sorts molecules by how far they enter the pores of the column.

As to “Mu50 ArdA (ArdA protein from Staphylococcus aureus Mu50, Orf SAV0405) (natural protein)”, the Kd in assay [1] stood at 3180 nM.
As for “Bfr ArdA (ArdA protein from Bacteroides fragilis NCTC 9343, Orf BF1222) (natural protein)”, in assay [2], the Kd came to 360 nM.
EcoKI MTase (from UniProt P08957): the Kd in assay [3] was 0.05 nM.
Regarding “Orf18 ArdA protein expressed by the conjugative transposon Tn916 (natural protein)”, in assay [4], the Kd was found to be 2200 nM.
